Source: patent EP1775307B1 (dated 2011)

Assays:
[1] = target: 28/32 kDa heterodimeric antigen on the surface of malignant B-cells (human); assay: Scatchard analysis, 125I-labeled antibody on Raji cells
[2] = target: T1, human CD3 antigen (CD3 complex) on T cells (human, UniProt P07766 23-207); assay: Scatchard analysis, 125I-labeled HuM291-Fos on activated human T cells
T1 construct: whole, on cells; Multi-subunit complex; also called human CD3 complex
T1 sequence (P07766 23-207, one chain of several): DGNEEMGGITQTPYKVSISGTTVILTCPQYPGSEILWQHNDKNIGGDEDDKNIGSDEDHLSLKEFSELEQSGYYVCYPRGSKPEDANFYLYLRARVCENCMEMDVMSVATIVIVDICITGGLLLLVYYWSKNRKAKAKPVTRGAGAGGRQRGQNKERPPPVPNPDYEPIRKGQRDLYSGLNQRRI

Molecule	Ka [1] [M⁻¹]	Ka [2] [M⁻¹]
humanized 1D10-IgG1 (antibody)	2.3e+08	–
HuM291-Fos F(ab'-zipper)2 (other) chain 1: QVQLVQSGAEVKKPGASVKVSCKASGYTFISYTMHWVRQAPGQGLEWMGYINPRSGYTHYNQKLKDKATLTADKSASTAYMELSSLRSEDTAVYYCARSAYYDYDGFAYWGQGTLVTVSSASTKGPSVFPLAPSSKSTSGGTAALGCLVKDYFPEPVTVSWNSGALTSGVHTFPAVLQSSGLYSLSSVVTVPSSSLGTQTYICNVNHKPSNTKVDKKVEPKSCDKTHTCPPCKCPAGGLTDTLQAETDQLEDKKSALQTEIANLLKGKEKLEFILAATS chain 2: DIQMTQSPSSLSASVGDRVTITCSASSSVSYMNWYQQKPGKAPKRLIYDTSKLASGVPSRFSGSGSGTDFTLTISSLQPEDFDTYYCQQWSSNPPTFGGGTKVEIKRTVAAPSVFIFPPSDEQLKSGTASVVCLLNNFYPREAKVQWKVDNALQSGNSQESVTEQDSKDSTYSLSSTLTLSKADYEKHKVYACEVTHQGLSSPVTKSFNRGEC	–	1.1e+09
